Measured values reported in patent US20200323888A1, “INHIBITORS” (VESTLANDETS INNOVASJONSSELSKAP AS, priority 2017, published 2020).
Square brackets hold non-standard residues; d marks the D form. Ends that are not written are not given here. Nle = CCCC[C@H](N)C(=O)O; CoA = coenzyme A

T1: NatA complex (Naa15-Naa10) (human, UniProt P41227 1-235; Q9BXJ9 1-866)
T1 sequence (looked up) 1: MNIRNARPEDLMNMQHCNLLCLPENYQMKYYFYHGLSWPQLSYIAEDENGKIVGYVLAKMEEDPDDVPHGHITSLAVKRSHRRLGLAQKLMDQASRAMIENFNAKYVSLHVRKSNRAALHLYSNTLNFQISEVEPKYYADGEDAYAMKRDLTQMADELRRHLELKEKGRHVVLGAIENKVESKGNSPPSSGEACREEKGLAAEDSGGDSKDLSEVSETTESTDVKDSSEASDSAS
T1 sequence (looked up) 2: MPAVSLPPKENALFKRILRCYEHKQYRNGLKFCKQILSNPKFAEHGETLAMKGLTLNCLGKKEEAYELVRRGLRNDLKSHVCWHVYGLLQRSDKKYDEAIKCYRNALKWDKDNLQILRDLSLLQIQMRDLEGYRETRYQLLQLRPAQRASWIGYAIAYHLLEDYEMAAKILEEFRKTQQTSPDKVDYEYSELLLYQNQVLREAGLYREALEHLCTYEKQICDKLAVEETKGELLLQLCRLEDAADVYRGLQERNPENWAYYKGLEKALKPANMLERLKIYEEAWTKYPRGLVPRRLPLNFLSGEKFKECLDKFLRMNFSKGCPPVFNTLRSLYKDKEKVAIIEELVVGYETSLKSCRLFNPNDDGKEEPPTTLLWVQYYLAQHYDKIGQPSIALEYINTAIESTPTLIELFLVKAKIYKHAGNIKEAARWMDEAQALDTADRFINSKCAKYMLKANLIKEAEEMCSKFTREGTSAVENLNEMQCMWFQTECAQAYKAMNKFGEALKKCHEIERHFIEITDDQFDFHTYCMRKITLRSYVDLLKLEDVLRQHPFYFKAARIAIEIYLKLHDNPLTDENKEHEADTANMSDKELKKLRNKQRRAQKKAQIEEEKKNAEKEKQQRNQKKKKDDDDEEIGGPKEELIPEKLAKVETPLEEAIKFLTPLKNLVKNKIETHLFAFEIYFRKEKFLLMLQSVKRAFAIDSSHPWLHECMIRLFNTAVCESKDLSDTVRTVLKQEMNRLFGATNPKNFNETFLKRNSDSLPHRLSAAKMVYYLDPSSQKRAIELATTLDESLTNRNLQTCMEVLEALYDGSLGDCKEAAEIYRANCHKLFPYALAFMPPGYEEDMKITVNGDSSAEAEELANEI

T2: MBP-HishNAA80 fusion protein (MBP-Naa80) (human, UniProt Q93015-2 1-308)
T2 sequence (looked up): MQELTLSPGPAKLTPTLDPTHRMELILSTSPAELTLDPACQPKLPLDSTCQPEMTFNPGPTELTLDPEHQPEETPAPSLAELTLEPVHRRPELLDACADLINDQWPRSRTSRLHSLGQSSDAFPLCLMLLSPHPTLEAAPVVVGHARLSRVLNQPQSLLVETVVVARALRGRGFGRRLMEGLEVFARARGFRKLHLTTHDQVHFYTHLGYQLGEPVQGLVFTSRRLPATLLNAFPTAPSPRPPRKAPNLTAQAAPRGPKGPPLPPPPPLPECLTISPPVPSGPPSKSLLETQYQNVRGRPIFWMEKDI


Biological target: T1, NatA complex (Naa15-Naa10)
Assay: cell-based or functional assay

Row | IC50 (µM), Nt-acetylation inhibition [µM] | Binder
1 | 62.4 | {CoA-Ac}-SASE-NH2 [CoA-Ac-SASE]
2 | > 1000 | {CoA-Ac}-PS[Nle]P (not fully specified (C-terminus); printed as CoA-Ac-PS(Nle)P) [CoA-Ac-PS(Nle)P]
3 | 9.47 | {CoA-Ac}-SSSE-NH2 [CoA-Ac-SSSE]
4 | 2.1 | {CoA-Ac}-SSMPV-NH2 [CoA-Ac-SSMPV]
5 | 15.4 | {CoA-Ac}-SESS-NH2 [CoA-Ac-SESS]
6 | 247 | {CoA-Ac}-AASE-NH2 [CoA-Ac-AASE]
7 | 12.1 | {CoA-Ac}-SAAE-NH2 [CoA-Ac-SAAE]
8 | 4.7 | {CoA-Ac}-SSAE-NH2 [CoA-Ac-SSAE]
9 | 1.28 | {CoA-Ac}-SSME-NH2 [CoA-Ac-SSME]
10 | 0.82 | {CoA-Ac}-SSMP-NH2 [CoA-Ac-SSMP]
11 | 5.3 | {CoA-Ac}-SSAA-NH2 [CoA-Ac-SSAA]
12 | 36.2 | {CoA-Ac}-SYAE-NH2 [CoA-Ac-SYAE]

Biological target: T2, MBP-HishNAA80 fusion protein (MBP-Naa80)
Assay: cell-based or functional assay

Row | Binder | IC50 (µM), Nt-acetylation inhibition [µM]
13 | {CoA-Ac}-EDDI-NH2 [EDDI (Naa80 bisubstrate analogue inhibitor)] | 0.12
14 | {CoA-Ac}-DDEI-NH2 [DDEI (Naa80 bisubstrate analogue inhibitor)] | 2.67
15 | {CoA-Ac}-EDEI-NH2 [EDEI (Naa80 bisubstrate analogue inhibitor)] | 0.76
16 | {CoA-Ac}-DEDI-NH2 [DEDI (Naa80 bisubstrate analogue inhibitor)] | 3.12
17 | {CoA-Ac}-EDEL-NH2 [EDEL (Naa80 bisubstrate analogue inhibitor)] | 0.15
18 | {CoA-Ac}-EEEI-NH2 [CoA-Ac-EEEI-NH2] | 1.16
19 | {CoA-Ac}-DEEL-NH2 [DEEL (Naa80 bisubstrate analogue inhibitor)] | 4.73
20 | {CoA-Ac}-EEDI-NH2 [EEDI (Naa80 bisubstrate analogue inhibitor)] | 0.17
21 | {CoA-Ac}-EDQL-NH2 [EDQL (Naa80 bisubstrate analogue inhibitor)] | 0.85
22 | {CoA-Ac}-MDEL-NH2 [CoA-Ac-MDEL-NH2] | 1.26
23 | {CoA-Ac}-DEEI-NH2 [DEEI (Naa80 bisubstrate analogue inhibitor)] | 1.22

The remaining lines, values ahead:

Row | IC50 (µM), Nt-acetylation inhibition [µM] | Binder
24 | 13.4 | {CoA-Ac}-PDEL-NH2 [PDEL (Naa80 bisubstrate analogue inhibitor)]
25 | 2.23 | {CoA-Ac}-QEEI-NH2 [QEEI (Naa80 bisubstrate analogue inhibitor)]
26 | 1.16 | {CoA-Ac}-EEEL-NH2 [EEEL (Naa80 bisubstrate analogue inhibitor)]
27 | 11.5 | {CoA-Ac}-ESEL-NH2 [ESEL (Naa80 bisubstrate analogue inhibitor)]
28 | 1.76 | {CoA-Ac}-EEDL-NH2 [EEDL (Naa80 bisubstrate analogue inhibitor)]

Biological target: T2, MBP-HishNAA80 fusion protein (MBP-Naa80)
Assay: cell-based or functional assay
Remark: another data set of the same source

Row | Binder | Product formation [µM]
29 | DDDIAALRWGRPVGRRRRPVRVYP [DDDI24] | 50.5
30 | AVFADLDRWGRPVGRRRRPVRVYP [AVFA24] | -0.96

Now from value to binder:

Row | Product formation [µM] | Binder
31 | 2.15 | MELLSPPRWGRPVGRRRRPVRVYP [MELL24]
32 | 3.37 | MKKSYSGRWGRPVGRRRRPVRVYP [MKKS24]
33 | -4.25 | MTNKSSLRWGRPVGRRRRPVRVYP [MTNK24]
34 | 42.4 | EEEIAALRWGRPVGRRRRPVRVYP [EEEI24]
35 | 1.14 | SESSSKSRWGRPVGRRRRPVRVYP [SESS24]
36 | 2.28 | MAPLDLDRWGRPVGRRRRPVRVYP [MAPL24]
37 | 2.06 | MLGPEGGRWGRPVGRRRRPVRVYP [MLGP24]
38 | 119 | MDELFPLRWGRPVGRRRRPVRVYP [MDEL24]
